Measurements published in patent US20210301293, “DNA APTAMERS, METHOD FOR INHIBITING HUMAN GALECTIN-1 AND METHOD OF TREATING A MAMMAL IN NEED THEREOF” (published 2021).

Assays:
[1] = molecular target: T1, human galectin-1 (hGal1), native (Homo sapiens, UniProt P09382 SEQ:1-134); assay: thermal shift assay; among the four with greatest Tm variation; conditions: tags: expressed in E. coli M-15, lactosyl-Sepharose purified; chain copies: 2
Experimental: (§1) Thermofluor experiments were performed on an Mx3005 RT-PCR (Agilent Technologies) using the SYPRO® Orange dye (492/610 nm) (Invitrogen) as fluorescent probe. The purified (native and alkylated) protein samples were incubated for 30 min with increasing concentration of the molecules of interest, centrifuged, and submitted to the thermal denaturation assay, totalizing four distinct experiments. In a 96-well plate (Agilent Technologies) 20 μl of the reaction containing 5 μM of each protein in buffer PBS 1× and 5× SYPRO® Orange were heated from 25° C. to 95° C. at a rate of 1° C./min. The experimental result was processed as in the protocol previously described and the melting temperature was obtained using GraphPad Prism software (www.graphpad.com).

[2] = molecular target: T1, human galectin-1 (hGal1), native; assay: thermal shift assay; results stated similar to SEQ ID NO 4 and 9; conditions: tags: expressed in E. coli M-15, lactosyl-Sepharose purified; chain copies: 2
Experimental: as §1

T1 sequence (P09382 2-135): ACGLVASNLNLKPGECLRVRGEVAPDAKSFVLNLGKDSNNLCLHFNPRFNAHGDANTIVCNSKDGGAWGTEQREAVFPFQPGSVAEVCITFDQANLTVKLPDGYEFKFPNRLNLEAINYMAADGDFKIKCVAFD

| Binder | binding result [1] | binding result [2] |
| --- | --- | --- |
| SEQ ID NO. 9 (ssDNA) DNA: AGCTGACACAGCAGGTTGGTGCCCAAAAGAGCCAATCCACGACGACACCCCAAAAACCATATCACGAATACCCGAGTCGAGCAATCTCGAAAT | binds |  |
| SEQ ID NO. 12 (ssDNA) DNA: AGCTGACACAGCAGGTTGGTGCGCCCAATACAGGCGCAGTATCTGTCCGTGGGCCGGGTAAAAGTTACGGACCGAGTCGAGCAATCTCGAAAT |  | binds |
| SEQ ID NO. 10 (ssDNA) DNA: AGCTGACACAGCAGGTTGGTGCCAACAAGAAAAGAAACCGTTACAGAAGACACTACAGAATAAGTGAAAAGCCGAGTCGAGCAATCTCGAAAT |  | binds |
